Patent US20180355061A1 (Janssen / Centocor, published 2018)

Legend:
[1] = target: T1, human PD-1 (soluble analyte in SPR) (human, UniProt Q15116 25-170, limits assumed); test: SPR (ProteOn XPR36), mAb captured on anti-human IgG Fc, PD-1 as analyte, 25 C
T1 construct: also called CD279; PDCD1
Procedure: (§1) Affinity measurements were performed using a ProteOn XPR36 system (BioRad). […] Approximately 5000 RU (response units) of mAbs were immobilized. The kinetic experiments were performed at 25° C. in running buffer (DPBS+0.01% P20+100 μg/mL BSA). To perform kinetic experiments, 200 RU of mAbs were captured followed by injections of analytes (human and cyno PD-1) at concentrations ranging from 1.563 nM to 400 nM (in a […] serial dilution). The association phase was monitored for 3 minutes at 50 μL/min, then followed by 10 or 15 minutes of buffer flow (dissociation phase). The chip surface was regenerated with two 18 second pulses of 100 mM H₃PO₄ (Sigma, Cat #7961) at 100 μL/min.
(§2) The collected data were processed using ProteOn Manager software. First, the data was corrected for background using inter-spots. Then, double reference subtraction of the data was performed by using the buffer injection for analyte injections. The kinetic analysis of the data was performed using a Langmuir 1:1 binding model. The result for each mAb was reported in the format of ka (On-rate), kd (Off-rate) and KD (equilibrium dissociation constant).
Affinity of the parental and humanized antibodies to PD-1 was measured using SPR as described in Example 1.

[2] = target: T1, human PD-1 (soluble analyte in SPR); test: SPR (ProteOn XPR36), mAb from crude supernatant captured on anti-human IgG Fc, PD-1 as analyte, 25 C
[3] = target: T2, cyno PD-1 (soluble analyte in SPR) (cyno); test: SPR (ProteOn XPR36), mAb captured on anti-human IgG Fc, cyno PD-1 as analyte, 25 C
T2 construct: also called cynomolgus PD-1
Procedure: as §1, §2
(§3) Affinity of the antibodies to human and cyno PD-1 was measured using SPR as described in Example 1.

[4] = target: T1, human PD-1 (soluble analyte in SPR); test: SPR (ProteOn XPR36), mAb captured on anti-human IgG Fc, human PD-1 as analyte, 25 C
Procedure: as §1, §2, §3

T1 sequence (Q15116 25-170 limits assumed): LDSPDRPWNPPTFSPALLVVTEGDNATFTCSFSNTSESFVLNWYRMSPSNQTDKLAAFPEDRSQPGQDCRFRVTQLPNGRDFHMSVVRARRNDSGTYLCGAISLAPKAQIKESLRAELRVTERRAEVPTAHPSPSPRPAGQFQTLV

| Binder | Kd [2] [nM] | koff [2] [s⁻¹] | kon [2] [M⁻¹ s⁻¹] | further results |
| --- | --- | --- | --- | --- |
| PD1B505 (antibody, human IgG1, kappa, V domains shown, Parental mouse antibody cloned as chimeric human IgG1; Bin 1; also called VH PD1H93; VL PD1L30) VH: DVQLQESGPELKKPGETVKISCKASGYTFTDYSMHWVKQAPGKGLKWMGWINIETGEPTYADDFKGRFAFSLETSASTAYLQINNLKNEDTATYFCARDYYGTYFYAMDYWGQGTTLTVSS VL: QIVLTQSPAIMSASLGERVTMTCTASSSVSSSYLHWYQQKPGSSPKLWIYSTSNLASGVPARFSGSGSGTSYSLTISSMEAEDAATYYCHQYHRSPLTFGAGTKLELKR | – | – | – | Kd [1]: 29.1 nM; koff [1]: 0.00236 s⁻¹; kon [1]: 81100 M⁻¹ s⁻¹ |
| PD1B845 (antibody, human IgG1, kappa, V domains shown, G56A variant of PD1B750, IgG1; tested as crude supernatant in SPR; also called VH PD1H399; VL PD1L470) VH: QVQLVQSGAEVKKPGASVKVSCKASGYTFTTYWMHWVRQAPGQGLEWMGEINPNNAGINYAQKFQGRVTLTVDKSISTAYMELSRLRSDDTAVYYCTIDYYDYGGYWGQGTLVTVSS VL: DIQMTQSPSSLSASVGDRVTITCKASQNVGTNVAWYQQKPEKAPKSLIYSASYRYSGVPSRFSGSGSGTDFTLTISSLQPEDFATYYCQQYNIYPYTFGQGTKLEIKR | 24 | 0.00843 | 351000 | – |
| PD1B849 (antibody, human IgG1, kappa, V domains shown, N55E variant of PD1B750, IgG1; also called VH PD1H403; VL PD1L470) VH: QVQLVQSGAEVKKPGASVKVSCKASGYTFTTYWMHWVRQAPGQGLEWMGEINPNEGGINYAQKFQGRVTLTVDKSISTAYMELSRLRSDDTAVYYCTIDYYDYGGYWGQGTLVTVSS VL: DIQMTQSPSSLSASVGDRVTITCKASQNVGTNVAWYQQKPEKAPKSLIYSASYRYSGVPSRFSGSGSGTDFTLTISSLQPEDFATYYCQQYNIYPYTFGQGTKLEIKR | – | – | – | Kd [1]: 47.1 nM; koff [1]: 0.00883 s⁻¹; kon [1]: 188000 M⁻¹ s⁻¹ |
| PD1B850 (antibody, human IgG1, kappa, V domains shown, G56I variant of PD1B750, IgG1; tested as crude supernatant in SPR; also called VH PD1H404; VL PD1L470) VH: QVQLVQSGAEVKKPGASVKVSCKASGYTFTTYWMHWVRQAPGQGLEWMGEINPNNIGINYAQKFQGRVTLTVDKSISTAYMELSRLRSDDTAVYYCTIDYYDYGGYWGQGTLVTVSS VL: DIQMTQSPSSLSASVGDRVTITCKASQNVGTNVAWYQQKPEKAPKSLIYSASYRYSGVPSRFSGSGSGTDFTLTISSLQPEDFATYYCQQYNIYPYTFGQGTKLEIKR | 23 | 0.00719 | 313000 | – |
| PD1B847 (antibody, human IgG1, kappa, V domains shown, N55Q variant of PD1B750, IgG1; tested as crude supernatant in SPR; also called VH PD1H401; VL PD1L470) VH: QVQLVQSGAEVKKPGASVKVSCKASGYTFTTYWMHWVRQAPGQGLEWMGEINPNQGGINYAQKFQGRVTLTVDKSISTAYMELSRLRSDDTAVYYCTIDYYDYGGYWGQGTLVTVSS VL: DIQMTQSPSSLSASVGDRVTITCKASQNVGTNVAWYQQKPEKAPKSLIYSASYRYSGVPSRFSGSGSGTDFTLTISSLQPEDFATYYCQQYNIYPYTFGQGTKLEIKR | 24.6 | 0.00744 | 303000 | – |
| PD1B848 (antibody, human IgG1, kappa, V domains shown, N55K variant of PD1B750, IgG1; tested as crude supernatant in SPR; also called VH PD1H402; VL PD1L470) VH: QVQLVQSGAEVKKPGASVKVSCKASGYTFTTYWMHWVRQAPGQGLEWMGEINPNKGGINYAQKFQGRVTLTVDKSISTAYMELSRLRSDDTAVYYCTIDYYDYGGYWGQGTLVTVSS VL: DIQMTQSPSSLSASVGDRVTITCKASQNVGTNVAWYQQKPEKAPKSLIYSASYRYSGVPSRFSGSGSGTDFTLTISSLQPEDFATYYCQQYNIYPYTFGQGTKLEIKR | 39.2 | 0.00991 | 253000 | – |
| PD1B846 (antibody, human IgG1, kappa, V domains shown, N55D, G56A variant of PD1B750, IgG1; tested as crude supernatant in SPR; also called VH PD1H400; VL PD1L470) VH: QVQLVQSGAEVKKPGASVKVSCKASGYTFTTYWMHWVRQAPGQGLEWMGEINPNDAGINYAQKFQGRVTLTVDKSISTAYMELSRLRSDDTAVYYCTIDYYDYGGYWGQGTLVTVSS VL: DIQMTQSPSSLSASVGDRVTITCKASQNVGTNVAWYQQKPEKAPKSLIYSASYRYSGVPSRFSGSGSGTDFTLTISSLQPEDFATYYCQQYNIYPYTFGQGTKLEIKR | 21.6 | 0.00753 | 349000 | – |
| PD1B1085 (antibody, human IgG1, kappa, V domains shown, also called VH PD1H585; VL PD1L469) VH: QVQLVQSGSELKKPGASVKVSCKASGYTFTDYSMHWVRQAPGQGLEWMGWINIETGYPTYAQGFTGRFVFSLDTSVSTAYLQISSLKAEDTAVYFCARDYYGTYFYAMDYWGQGTLVTVSS VL: EIVLTQSPATLSLSPGERATLSCTASSSVSSSYLHWYQQKPGLAPRLLIYSTSNLASGIPDRFSGSGSGTDYTLTISRLEPEDFAVYYCHQYHRSPLTFGQGTKLEIKR | – | – | – | Kd [3]: 6.45 nM; koff [3]: 0.00129 s⁻¹; kon [3]: 200000 M⁻¹ s⁻¹; Kd [4]: 0.911 nM; koff [4]: 0.000142 s⁻¹; kon [4]: 156000 M⁻¹ s⁻¹ |
